For data set [1], the system named is HeLa Kyoto. Kind of data set: solubility change mitosis vs G1/S (difference of NP-40 vs SDS log2 ratios) (log2 ratio difference); higher = more soluble in mitosis.
Data set [2] concerns HeLa Kyoto. Kind of data set: thermal stability score vs G1/S (z-score of summed log2 fold changes over temperatures); higher = more thermally stable than in G1/S.
The subject of data set [3] is HeLa Kyoto. Kind of data set: solubility in G1/S (NP-40 vs SDS abundance) (log2 ratio); higher = more soluble. The conditions noted are these: cell cycle stage: G1/S.
The test system of data set [4] is HeLa Kyoto. Kind of data set: melting temperature (median over replicates), in situ; higher = more thermally stable.
Where [5] appears, read: cell cycle stage: early G1 (4.5 h after nocodazole release).
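Throughout, for melting temperature (median over replicates), in situ: HeLa Kyoto cells synchronized by double thymidine or nocodazole block, proteins quantified by TMT10plex mass spectrometry, three independent biological replicates.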
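Throughout, for solubility change mitosis vs G1/S (difference of NP-40 vs SDS log2 ratios): synchronized HeLa Kyoto cells (double thymidine block for G1/S, nocodazole release for mitosis), protein amounts in NP-40 versus SDS lysates quantified by mass spectrometry, three biological replicates.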
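Throughout, for solubility in G1/S (NP-40 vs SDS abundance): HeLa Kyoto cells arrested at G1/S by double thymidine block, proteins quantified by TMT10plex mass spectrometry in mild NP-40 versus SDS extracts, three biological replicates.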
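Throughout, for thermal stability score vs G1/S (z-score of summed log2 fold changes over temperatures): synchronized HeLa Kyoto cells, proteins quantified by TMT10plex mass spectrometry, three biological replicates, mitosis taken 0.5 h after nocodazole release, G1/S directly after double thymidine block.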

On to “MLPSLQESMDGDEKELESSEEGGSAEERRLEPPSSSHYCLYSYRGSRLAQQRGDSEDGSPSGTNAETPSGDDFSLSLADTNLPSEVEPELRSFIAKRLSRGAVFEGLGNVASVELKIPGYRVGCYYCLFQNEKLLPETVTIDSERNPSEYVVCFLGGSEKGLELFRLELDKYIQGLKNNMNCEARGLESHIKSYLSSWFEDVVCPIQRVVLLFQEKLTFLLHAALSYTPVEVKESDEKTKRDINRFLSVASLQGLIHEGTMTSLCMAMTEEQHKSVVIDCSSSQPQFCNAGSNRFCEDWMQAFLNGAKGGNPFLFRQVLENFKLKAIQDTNNLKRFIRQAEMNHYALFKCYMFLKNCGSGDILLKIVKVEHEEMPEAKNVIAVLEEFMKEALDQSF [C17ORF75]”, for which the “solubility change mitosis (log2)” value in data set [1] is -0.159. Moreover, the thermal stability score is -0.255 in data set [2] (setting [5]) and -0.352 in data set [2] (cell cycle stage: mitosis). For the same sequence, the “solubility in G1/S (log2)” value in data set [3] was 0.283. The melting temperature in data set [4] (cell cycle stage: G1/S) is 51.5 °C; in data set [4] (cell cycle stage: mitosis) it was 51.7 °C.

Take “MLPYTVNFKVSARTLTGALNAHNKAAVDWGWQGLIAYGCHSLVVVIDSITAQTLQVLEKHKADVVKVKWARENYHHNIGSPYCLRLASADVNGKIIVWDVAAGVAQCEIQEHAKPIQDVQWLWNQDASRDLLLAIHPPNYIVLWNADTGTKLWKKSYADNILSFSFDPFDPSHLTLLTSEGIVFISDFSPSKPPSGPGKKVYISSPHSSPAHNKLATATGAKKALNKVKILITQEKPSAEFITLNDCLQLAYLPSKRNHMLLLYPREILILDLEVNQTVGVIAIERTGVPFLQVIPCFQRDGLFCLHENGCITLRVRRSYNNIFTTSNEEPDPDPVQELTYDLRSQCDAIRVTKTVRPFSMVCCPVNENAAALVVSDGRVMIWELKSAVCNRNSRNSSSGVSPLYSPVSFCGIPVGVLQNKLPDLSLDNMIGQSAIAGEEHPRGSILREVHLKFLLTGLLSGLPAPQFAIRMCPPLTTKNIKMYQPLLAVGTSNGSVLVYHLTSGLLHKELSIHSCEVKGIEWTSLTSFLSFATSTPNNMGLVRNELQLVDLPTGRSIAFRGERGNDESAIEMIKVSHLKQYLAVVFRDKPLELWDVRTCTLLREMSKNFPTITALEWSPSHNLKSLRKKQLATREAMARQTVVSDTELSIVESSVISLLQEAESKSELSQNISAREHFVFTDIDGQVYHLTVEGNSVKDSARIPPDGSMGSITCIAWKGDTLVLGDMDGNLNFWDLKGRVSRGIPTHRSWVRKIRFAPGKGNQKLIAMYNDGAEVWDTKEVQMVSSLRSGRNVTFRILDVDWCTSDKVILASDDGCIRVLEMSMKSACFRMDEQELTEPVWCPYLLVPRASLALKAFLLHQPWNGQYSLDISHVDYPENEEIKNLLQEQLNSLSNDIKKLLLDPEFTLLQRCLLVSRLYGDESELHFWTVAAHYLHSLSQEKSASTTAPKEAAPRDKLSNPLDICYDVLCENAYFQKFQLERVNLQEVKRSTYDHTRKCTDQLLLLGQTDRAVQLLLETSADNQHYYCDSLKACLVTTVTSSGPSQSTIKLVATNMIANGKLAEGVQLLCLIDKAADACRYLQTYGEWNRAAWLAKVRLNPEECADVLRRWVDHLCSPQVNQKSKALLVLLSLGCFFSVAETLHSMRYFDRAALFVEACLKYGAFEVTEDTEKLITAIYADYARSLKNLGFKQGAVLFASKAGAAGKDLLNELESPKEEPIEE [WDR11]”: the “solubility change mitosis (log2)” value in data set [1] is -0.106. Further, the thermal stability score came out at 1.39 in data set [2] (setting [5]) and 0.377 in data set [2] (cell cycle stage: mitosis). Besides, in data set [3], the “solubility in G1/S (log2)” value was -0.123. Also, the values for the melting temperature in data set [4] (cell cycle stage: G1/S) and in data set [4] (cell cycle stage: mitosis) were 52.8 °C and 53.4 °C, respectively.

As for “MLRAGWLRGAAALALLLAARVVAAFEPITVGLAIGAASAITGYLSYNDIYCRFAECCREERPLNASALKLDLEEKLFGQHLATEVIFKALTGFRNNKNPKKPLTLSLHGWAGTGKNFVSQIVAENLHPKGLKSNFVHLFVSTLHFPHEQKIKLYQDQLQKWIRGNVSACANSVFIFDEMDKLHPGIIDAIKPFLDYYEQVDGVSYRKAIFIFLSNAGGDLITKTALDFWRAGRKREDIQLKDLEPVLSVGVFNNKHSGLWHSGLIDKNLIDYFIPFLPLEYRHVKMCVRAEMRARGSAIDEDIVTRVAEEMTFFPRDEKIYSDKGCKTVQSRLDFH [TOR1B]”, the “solubility change mitosis (log2)” value in data set [1] is -0.143. For the same sequence, the thermal stability score was determined as 2.27 in data set [2] (setting [5]) and 5.78 in data set [2] (cell cycle stage: mitosis). In data set [3], the “solubility in G1/S (log2)” value came to 0.349. Further, the melting temperature in data set [4] (cell cycle stage: G1/S) was 53.7 °C; in data set [4] (cell cycle stage: mitosis), 53.9 °C.

Take “MLRMRTAGWARGWCLGCCLLLPLSLSLAAAKQLLRYRLAEEGPADVRIGNVASDLGIVTGSGEVTFSLESGSEYLKIDNLTGELSTSERRIDREKLPQCQMIFDENECFLDFEVSVIGPSQSWVDLFEGQVIVLDINDNTPTFPSPVLTLTVEENRPVGTLYLLPTATDRDFGRNGIERYELLQEPGGGGSGGESRRAGAADSAPYPGGGGNGASGGGSGGSKRRLDASEGGGGTNPGGRSSVFELQVADTPDGEKQPQLIVKGALDREQRDSYELTLRVRDGGDPPRSSQAILRVLITDVNDNSPRFEKSVYEADLAENSAPGTPILQLRAADLDVGVNGQIEYVFGAATESVRRLLRLDETSGWLSVLHRIDREEVNQLRFTVMARDRGQPPKTDKATVVLNIKDENDNVPSIEIRKIGRIPLKDGVANVAEDVLVDTPIALVQVSDRDQGENGVVTCTVVGDVPFQLKPASDTEGDQNKKKYFLHTSTPLDYEATREFNVVIVAVDSGSPSLSSNNSLIVKVGDTNDNPPMFGQSVVEVYFPENNIPGERVATVLATDADSGKNAEIAYSLDSSVMGIFAIDPDSGDILVNTVLDREQTDRYEFKVNAKDKGIPVLQGSTTVIVQVADKNDNDPKFMQDVFTFYVKENLQPNSPVGMVTVMDADKGRNAEMSLYIEENNNIFSIENDTGTIYSTMSFDREHQTTYTFRVKAVDGGDPPRSATATVSLFVMDENDNAPTVTLPKNISYTLLPPSSNVRTVVATVLATDSDDGINADLNYSIVGGNPFKLFEIDPTSGVVSLVGKLTQKHYGLHRLVVQVNDSGQPSQSTTTLVHVFVNESVSNATAIDSQIARSLHIPLTQDIAGDPSYEISKQRLSIVIGVVAGIMTVILIILIVVMARYCRSKNKNGYEAGKKDHEDFFTPQQHDKSKKPKKDKKNKKSKQPLYSSIVTVEASKPNGQRYDSVNEKLSDSPSMGRYRSVNGGPGSPDLARHYKSSSPLPTVQLHPQSPTAGKKHQAVQDLPPANTFVGAGDNISIGSDHCSEYSCQTNNKYSKQMRLHPYITVFG [PCDH7]”: the “solubility change mitosis (log2)” value in data set [1] was -0.075. For the same sequence, the figures for the thermal stability score in data set [2] (setting [5]) and in data set [2] (cell cycle stage: mitosis) were -1.64 and -1.07, respectively. Further, in data set [3], the “solubility in G1/S (log2)” value was determined as 0.215. In addition, the melting temperature in data set [4] (cell cycle stage: G1/S) came out at 55.1 °C; in data set [4] (cell cycle stage: mitosis) it was 53.4 °C.

Consider “MLRPAGLWRLCRRPWAARVPAENLGRREVTSGVSPRGSTSPRTLNIFDRDLKRKQKNWAARQPEPTKFDYLKEEVGSRIADRVYDIPRNFPLALDLGCGRGYIAQYLNKETIGKFFQADIAENALKNSSETEIPTVSVLADEEFLPFKENTFDLVVSSLSLHWVNDLPRALEQIHYILKPDGVFIGAMFGGDTLYELRCSLQLAETEREGGFSPHISPFTAVNDLGHLLGRAGFNTLTVDTDEIQVNYPGMFELMEDLQGMGESNCAWNRKALLHRDTMLAAAAVYREMYRNEDGSVPATYQIYYMIGWKYHESQARPAERGSATVSFGELGKINNLMPPGKKSQ [NDUFAF5]”, for which the “solubility change mitosis (log2)” value in data set [1] was -0.0552. For the same sequence, the figures for the thermal stability score in data set [2] (setting [5]) and in data set [2] (cell cycle stage: mitosis) were 0.357 and 0.191, respectively. The “solubility in G1/S (log2)” value in data set [3] is 0.329. In addition, the melting temperature in data set [4] (cell cycle stage: G1/S) worked out at 53.5 °C; in data set [4] (cell cycle stage: mitosis), 53.4 °C.

(Values after the supplement of paper PMC5998384.)
